This note sets out measurements from patent publication US20150344570A1 (published 2015).

Assay [1] deals with T1, FcγRIIb extracellular domain with C-terminal His tag (human, UniProt P31994 43-217).
T1 construct: extracellular domain; expressed in FreeStyle293 cells; analyte in Biacore; also called FcgRIIb; 2b
T1 sequence (looked up): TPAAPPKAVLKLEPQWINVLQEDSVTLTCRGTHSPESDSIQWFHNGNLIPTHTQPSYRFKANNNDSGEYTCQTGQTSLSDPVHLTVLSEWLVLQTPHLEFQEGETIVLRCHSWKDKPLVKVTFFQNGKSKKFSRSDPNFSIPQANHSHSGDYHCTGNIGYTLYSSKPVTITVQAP
In words: SPR (Biacore), captured antibody, FcγR as analyte; relative binding.

Assay [2] has as its target T2, FcγRIa extracellular domain with C-terminal His tag (human, UniProt P12314 16-292).
T2 construct: extracellular domain; expressed in FreeStyle293 cells; analyte in Biacore; also called FcgRI; 1a
The description is as above.

T2 sequence (P12314 16-292): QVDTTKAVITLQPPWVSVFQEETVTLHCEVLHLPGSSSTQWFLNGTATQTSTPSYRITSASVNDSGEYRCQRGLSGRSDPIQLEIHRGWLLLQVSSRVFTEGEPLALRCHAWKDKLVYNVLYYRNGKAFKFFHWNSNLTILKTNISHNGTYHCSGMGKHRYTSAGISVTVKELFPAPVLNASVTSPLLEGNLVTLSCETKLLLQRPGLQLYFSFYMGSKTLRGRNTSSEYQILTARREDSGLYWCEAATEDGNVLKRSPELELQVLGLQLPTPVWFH

B1: GpH7-A5/GpH7-B3 variant S298_09D/GpL16-k0 (antibody, human IgG1, kappa)
heavy 1: not shown
heavy 2: not shown
light: DIVMTQSPLSLPVTPGEPASISCQASESLVHSNRNTYLHWYLQKPGQSPQLLIYKVSNRFSGVPDRFSGSGSGTDFTLKISRVEAEDVGVYYCSQNTHVPPTFGQGTKVEIERTVAAPSVFIFPPSDEQLKSGTASVVCLLNNFYPREAKVQWKVDNALQSGNSQESVTEQDSKDSTYSLSSTLTLSKADYEKHKVYACEVTHQGLSSPVTKSFNRGEC
notes: He Ab; IgG1, mutation in one H chain
With B1, the He/Con_2b in assay [1] is 48.3 % of HeCon Ab (GpH7-A5/GpH7-B3/GpL16-k0 = 100). Further, the He/Con_1a in assay [2] is 106 % of HeCon Ab (GpH7-A5/GpH7-B3/GpL16-k0 = 100).

B2: GpH7-A5/GpH7-B3 variant Y296_06M/GpL16-k0 (antibody, human IgG1, kappa)
heavy 1: not shown
heavy 2: not shown
light: DIVMTQSPLSLPVTPGEPASISCQASESLVHSNRNTYLHWYLQKPGQSPQLLIYKVSNRFSGVPDRFSGSGSGTDFTLKISRVEAEDVGVYYCSQNTHVPPTFGQGTKVEIERTVAAPSVFIFPPSDEQLKSGTASVVCLLNNFYPREAKVQWKVDNALQSGNSQESVTEQDSKDSTYSLSSTLTLSKADYEKHKVYACEVTHQGLSSPVTKSFNRGEC
notes: as for B1
Regarding B2, the He/Con_2b in assay [1] was 87.8 % of HeCon Ab (GpH7-A5/GpH7-B3/GpL16-k0 = 100). Further, in assay [2], the He/Con_1a is 104 % of HeCon Ab (GpH7-A5/GpH7-B3/GpL16-k0 = 100).

B3: GpH7-A5/GpH7-B3 variant S298_19Q/GpL16-k0 (antibody, human IgG1, kappa)
heavy 1: not shown
heavy 2: not shown
light: DIVMTQSPLSLPVTPGEPASISCQASESLVHSNRNTYLHWYLQKPGQSPQLLIYKVSNRFSGVPDRFSGSGSGTDFTLKISRVEAEDVGVYYCSQNTHVPPTFGQGTKVEIERTVAAPSVFIFPPSDEQLKSGTASVVCLLNNFYPREAKVQWKVDNALQSGNSQESVTEQDSKDSTYSLSSTLTLSKADYEKHKVYACEVTHQGLSSPVTKSFNRGEC
notes: as for B1
As for B3, in assay [1], the He/Con_2b is 73.3 % of HeCon Ab (GpH7-A5/GpH7-B3/GpL16-k0 = 100). Besides, in assay [2], the He/Con_1a is 109 % of HeCon Ab (GpH7-A5/GpH7-B3/GpL16-k0 = 100).

B4: GpH7-A5/GpH7-B3 variant S324_07I/GpL16-k0 (antibody, human IgG1, kappa)
heavy 1: not shown
heavy 2: not shown
light: DIVMTQSPLSLPVTPGEPASISCQASESLVHSNRNTYLHWYLQKPGQSPQLLIYKVSNRFSGVPDRFSGSGSGTDFTLKISRVEAEDVGVYYCSQNTHVPPTFGQGTKVEIERTVAAPSVFIFPPSDEQLKSGTASVVCLLNNFYPREAKVQWKVDNALQSGNSQESVTEQDSKDSTYSLSSTLTLSKADYEKHKVYACEVTHQGLSSPVTKSFNRGEC
notes: as for B1
Turning to B4, the He/Con_2b in assay [1] is 95.7 % of HeCon Ab (GpH7-A5/GpH7-B3/GpL16-k0 = 100). In addition, the He/Con_1a in assay [2] is 102 % of HeCon Ab (GpH7-A5/GpH7-B3/GpL16-k0 = 100).

B5: GpH7-A5/GpH7-B3 variant S298_11K/GpL16-k0 (antibody, human IgG1, kappa)
heavy 1: not shown
heavy 2: not shown
light: DIVMTQSPLSLPVTPGEPASISCQASESLVHSNRNTYLHWYLQKPGQSPQLLIYKVSNRFSGVPDRFSGSGSGTDFTLKISRVEAEDVGVYYCSQNTHVPPTFGQGTKVEIERTVAAPSVFIFPPSDEQLKSGTASVVCLLNNFYPREAKVQWKVDNALQSGNSQESVTEQDSKDSTYSLSSTLTLSKADYEKHKVYACEVTHQGLSSPVTKSFNRGEC
notes: as for B1
In the case of B5, the He/Con_2b in assay [1] was 61.3 % of HeCon Ab (GpH7-A5/GpH7-B3/GpL16-k0 = 100). For the same molecule, the He/Con_1a in assay [2] was 109 % of HeCon Ab (GpH7-A5/GpH7-B3/GpL16-k0 = 100).

B6: GpH7-A5/GpH7-B3 variant S298_14T/GpL16-k0 (antibody, human IgG1, kappa)
heavy 1: not shown
heavy 2: not shown
light: DIVMTQSPLSLPVTPGEPASISCQASESLVHSNRNTYLHWYLQKPGQSPQLLIYKVSNRFSGVPDRFSGSGSGTDFTLKISRVEAEDVGVYYCSQNTHVPPTFGQGTKVEIERTVAAPSVFIFPPSDEQLKSGTASVVCLLNNFYPREAKVQWKVDNALQSGNSQESVTEQDSKDSTYSLSSTLTLSKADYEKHKVYACEVTHQGLSSPVTKSFNRGEC
notes: as for B1
Regarding B6, in assay [1], the He/Con_2b was 77.9 % of HeCon Ab (GpH7-A5/GpH7-B3/GpL16-k0 = 100). Also, the He/Con_1a in assay [2] is 107 % of HeCon Ab (GpH7-A5/GpH7-B3/GpL16-k0 = 100).

B7: GpH7-A5/GpH7-B3 variant Y296_04F/GpL16-k0 (antibody, human IgG1, kappa)
heavy 1: not shown
heavy 2: not shown
light: DIVMTQSPLSLPVTPGEPASISCQASESLVHSNRNTYLHWYLQKPGQSPQLLIYKVSNRFSGVPDRFSGSGSGTDFTLKISRVEAEDVGVYYCSQNTHVPPTFGQGTKVEIERTVAAPSVFIFPPSDEQLKSGTASVVCLLNNFYPREAKVQWKVDNALQSGNSQESVTEQDSKDSTYSLSSTLTLSKADYEKHKVYACEVTHQGLSSPVTKSFNRGEC
notes: as for B1
In the case of B7, the He/Con_2b in assay [1] is 99.2 % of HeCon Ab (GpH7-A5/GpH7-B3/GpL16-k0 = 100). For the same molecule, the He/Con_1a in assay [2] was 104 % of HeCon Ab (GpH7-A5/GpH7-B3/GpL16-k0 = 100).

B8: GpH7-A5/GpH7-B3 variant S298_10E/GpL16-k0 (antibody, human IgG1, kappa)
heavy 1: not shown
heavy 2: not shown
light: DIVMTQSPLSLPVTPGEPASISCQASESLVHSNRNTYLHWYLQKPGQSPQLLIYKVSNRFSGVPDRFSGSGSGTDFTLKISRVEAEDVGVYYCSQNTHVPPTFGQGTKVEIERTVAAPSVFIFPPSDEQLKSGTASVVCLLNNFYPREAKVQWKVDNALQSGNSQESVTEQDSKDSTYSLSSTLTLSKADYEKHKVYACEVTHQGLSSPVTKSFNRGEC
notes: as for B1
On to B8, for which the He/Con_2b in assay [1] is 47.6 % of HeCon Ab (GpH7-A5/GpH7-B3/GpL16-k0 = 100). Also, the He/Con_1a in assay [2] was 108 % of HeCon Ab (GpH7-A5/GpH7-B3/GpL16-k0 = 100).

B9: GpH7-A5/GpH7-B3 variant S298_16H/GpL16-k0 (antibody, human IgG1, kappa)
heavy 1: not shown
heavy 2: not shown
light: DIVMTQSPLSLPVTPGEPASISCQASESLVHSNRNTYLHWYLQKPGQSPQLLIYKVSNRFSGVPDRFSGSGSGTDFTLKISRVEAEDVGVYYCSQNTHVPPTFGQGTKVEIERTVAAPSVFIFPPSDEQLKSGTASVVCLLNNFYPREAKVQWKVDNALQSGNSQESVTEQDSKDSTYSLSSTLTLSKADYEKHKVYACEVTHQGLSSPVTKSFNRGEC
notes: as for B1
As for B9, the He/Con_2b in assay [1] was 63.5 % of HeCon Ab (GpH7-A5/GpH7-B3/GpL16-k0 = 100). The He/Con_1a in assay [2] is 109 % of HeCon Ab (GpH7-A5/GpH7-B3/GpL16-k0 = 100).

B10: GpH7-A5/GpH7-B3 variant S324_02A/GpL16-k0 (antibody, human IgG1, kappa)
heavy 1: not shown
heavy 2: not shown
light: DIVMTQSPLSLPVTPGEPASISCQASESLVHSNRNTYLHWYLQKPGQSPQLLIYKVSNRFSGVPDRFSGSGSGTDFTLKISRVEAEDVGVYYCSQNTHVPPTFGQGTKVEIERTVAAPSVFIFPPSDEQLKSGTASVVCLLNNFYPREAKVQWKVDNALQSGNSQESVTEQDSKDSTYSLSSTLTLSKADYEKHKVYACEVTHQGLSSPVTKSFNRGEC
notes: as for B1
Turning to B10, the He/Con_2b in assay [1] is 78.3 % of HeCon Ab (GpH7-A5/GpH7-B3/GpL16-k0 = 100). Further, the He/Con_1a in assay [2] was 103 % of HeCon Ab (GpH7-A5/GpH7-B3/GpL16-k0 = 100).
